From article PMC7333480 (Journal of Molecular Cell Biology, 2019)
Each block holds one binder with its values, some of them ahead of it.

Target: His-ezrin WT (UniProt P15311 1-586)
Experiment: pull-down

His-ezrin WT, sequence (P15311 whole entry): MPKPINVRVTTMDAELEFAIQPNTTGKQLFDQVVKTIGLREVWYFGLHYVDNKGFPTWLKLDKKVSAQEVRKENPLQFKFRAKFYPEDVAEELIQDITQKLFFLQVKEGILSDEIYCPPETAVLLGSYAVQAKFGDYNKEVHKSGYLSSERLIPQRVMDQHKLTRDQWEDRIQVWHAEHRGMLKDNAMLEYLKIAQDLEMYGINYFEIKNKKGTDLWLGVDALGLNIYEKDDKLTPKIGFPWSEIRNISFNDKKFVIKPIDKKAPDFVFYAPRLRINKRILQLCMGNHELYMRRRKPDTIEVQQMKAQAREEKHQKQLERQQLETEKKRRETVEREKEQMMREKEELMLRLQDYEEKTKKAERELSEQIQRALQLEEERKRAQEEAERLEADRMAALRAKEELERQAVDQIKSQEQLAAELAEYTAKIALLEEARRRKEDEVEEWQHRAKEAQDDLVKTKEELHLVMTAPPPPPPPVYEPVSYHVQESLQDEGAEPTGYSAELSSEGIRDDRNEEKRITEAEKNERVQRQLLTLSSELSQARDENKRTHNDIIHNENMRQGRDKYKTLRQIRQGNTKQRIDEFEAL

binding result: binds
B1: GST-EBP50-CT (domain or fragment)
chain: KENSREALAEAALESPRPALVRSASSDTSEELNSQDSPPKQDSTAPSSTSSSDPILDFNISLAMAKERAHQKRSSKRAPQMDWSKKNELFSNL

binding result: binds
Binder: FGQHLRQQRMGTYGVRAAWRRLPQAFRP (domain or fragment) [GST-ICAM2-CT]
